Assay results from patent US7057015B1, “Hormone receptor functional dimers and methods of their use” (The Salk Institute for Biological Studies, priority 1999, dated 2006).

How the values were obtained:
[1] = tested on: mammals and other non-insect species; settings: in vivo; cited from earlier work
[2] = tested on: E0R (EcR-RXR fusion, 0 linker segments) (Drosophila melanogaster / Homo sapiens); experiment: EMSA; settings: 1 uM muristerone A, 23 C
[3] = tested on: E0U (EcR-Usp fusion, 0 linker segments) (Drosophila melanogaster); experiment: EMSA; settings: nearly ligand-insensitive
[4] = tested on: E5R (EcR-RXR fusion, 5 linker segments) (Drosophila melanogaster / Homo sapiens); experiment: EMSA; settings: 1 uM muristerone A, 23 C
[5] = tested on: E5U (EcR-Usp fusion, 5 linker segments) (Drosophila melanogaster); experiment: EMSA; settings: nearly ligand-insensitive; not significantly above E0U
[6] = tested on: R0E (RXR-EcR fusion, 0 linker segments) (Homo sapiens / Drosophila melanogaster); experiment: EMSA; settings: 1 uM muristerone A, 23 C
[7] = tested on: R5E (RXR-EcR fusion, 5 linker segments) (Homo sapiens / Drosophila melanogaster); experiment: EMSA; settings: 1 uM muristerone A, 23 C
[8] = tested on: U0E (Usp-EcR fusion, 0 linker segments) (Drosophila melanogaster); experiment: EMSA; settings: barely detectable endodimer band; 1 uM muristerone A, 23 C
[9] = tested on: EcRE probe; experiment: Gel mobility shift analysis of EcRE probe binding by FDs; settings: 1 μM murA vs vehicle, extracts of transfected 293 cells
Protocol: Preparation of the invention fusion protein FDs for gel shift analysis by transient transfection into 293 cells was as follows: 300 ng of individual receptor plasmids and 100 ng pCH110 internal control plasmid were cotransfected into 293 cells at 60% density in Costar 6-well plates. One well of each group was treated with 1 μM murA as ligand at the time of transfection. 40 hours later, extracts of transfected 293 cells were made by scraping the cells from a well into a low volume of phosphate buffered saline, pelleting the cells, resuspending them in 200 μl 5×gel shift buffer (Yao et al., supra 1992), and sonicating with a Kontes cell disrupter for three 10-sec. bursts at output level 30. The extracts were then centrifuged to clear the lysate and the protein was quantified. […]
Comparative gel mobility shift analyses of FDs with control in vitro translated receptor complexes were performed using double stranded EcRE probes and labeled by Klenow fill using ^32P-dCTP and cold dGAT by standard methods. […] Band volumes were quantified using laser scanning densitometry.
An autoradiogram of FDs and controls treated either with control vehicle or with 1 μM of murA as ligand was made with markers indicating endodimer FD or wild type receptor-binding complex band shifts. […] FIG. 2A is a graph that quantifies endodimer-sized band volumes obtained from the autoradiogram.

[10] = tested on: E4-luc reporter plasmid in 293 cells; experiment: Transient transfection luciferase transactivation assay with E4-luc reporter; type: cell-based, human
Protocol: For quantitative transactivation analysis, transfections were performed in triplicate in 24-well plates by calcium-phosphate co-precipitation with 100 ng of an individual receptor, the reporter plasmid E4-luc, and pCH110 (SV40-β-galactosidase) as an internal control. Briefly, the reporter plasmid, E4-luc, was constructed of 4-tandem EcREs inserted upstream of a thymidine kinase gene minimal promoter directing luciferase expression. […] 1 μM ligand was added at the time of transfection, and the cells were harvested for luciferase assay 40 hours later. Harvested cell extracts were split, and one part was analyzed in a luminometer for luciferase activity and the other part was analyzed for β-galactosidase activity using an orthonitrophenyl galactoside assay by standard methods. Luciferase levels were normalized to β-galactosidase values to correct for slight differences in transfection efficiency.

[11] = target: T1, Drosophila melanogaster ecdysone receptor (monomeric) (Drosophila melanogaster, UniProt P34021 1-878); experiment: cell-based or functional assay
T1 sequence (looked up): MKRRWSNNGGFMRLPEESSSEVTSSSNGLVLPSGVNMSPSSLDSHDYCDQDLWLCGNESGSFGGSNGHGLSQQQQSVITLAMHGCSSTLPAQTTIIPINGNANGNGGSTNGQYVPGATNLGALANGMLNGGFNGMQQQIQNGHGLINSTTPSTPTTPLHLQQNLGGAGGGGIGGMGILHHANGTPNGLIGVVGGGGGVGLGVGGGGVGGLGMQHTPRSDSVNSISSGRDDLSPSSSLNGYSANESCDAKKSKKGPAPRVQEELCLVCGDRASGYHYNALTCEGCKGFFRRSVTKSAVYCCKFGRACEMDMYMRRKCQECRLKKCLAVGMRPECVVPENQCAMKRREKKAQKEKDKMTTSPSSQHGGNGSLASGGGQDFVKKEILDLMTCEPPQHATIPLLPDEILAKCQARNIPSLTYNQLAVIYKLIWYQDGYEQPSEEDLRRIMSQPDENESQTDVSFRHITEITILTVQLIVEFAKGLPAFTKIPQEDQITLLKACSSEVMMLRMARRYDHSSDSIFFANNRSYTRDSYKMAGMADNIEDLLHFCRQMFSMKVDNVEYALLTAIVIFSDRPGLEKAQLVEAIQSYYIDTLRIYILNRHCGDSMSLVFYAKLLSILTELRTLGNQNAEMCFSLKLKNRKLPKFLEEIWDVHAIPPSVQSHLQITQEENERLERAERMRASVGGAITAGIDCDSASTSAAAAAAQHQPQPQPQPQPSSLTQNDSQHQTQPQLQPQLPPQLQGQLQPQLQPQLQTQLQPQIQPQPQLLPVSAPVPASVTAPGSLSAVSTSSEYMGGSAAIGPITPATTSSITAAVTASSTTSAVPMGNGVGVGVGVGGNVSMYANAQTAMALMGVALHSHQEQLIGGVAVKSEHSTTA

## CCc1ccc(C(=O)NN(C(=O)c2cc(C)cc(C)c2)C(C)(C)C)cc1 [Tebufenozide, tebufenozide]
[1]
  toxicity to mammals and other non-insect species: very low toxicity

## EcRE probe
[2]
  binding signal (fold increase with ligand): 7
[3]
  binding signal (fold vs UNE constructs (average of ENU)): 10
[4]
  binding signal (fold increase with ligand): 11
[5]
  binding signal (fold vs UNE constructs (average of ENU)): 10
[6]
  binding signal (fold increase with ligand): 4
[7]
  binding signal (fold increase with ligand): 5
[8]
  binding signal (fold increase with ligand): 2

B1: E5R: fusion protein: Drosophila EcR at amino terminus, 5 linker segments, RXR (protein)
chain: MKRRWSNNGGFMRLPEESSSEVTSSSNGLVLPSGVNMSPSSLDSHDYCDQDLWLCGNESGSFGGSNGHGLSQQQQSVITLAMHGCSSTLPAQTTIIPINGNANGNGGSTNGQYVPGATNLGALANGMLNGGFNGMQQQIQNGHGLINSTTPSTPTTPLHLQQNLGGAGGGGIGGMGILHHANGTPNGLIGVVGGGGGVGLGVGGGGVGGLGMQHTPRSDSVNSISSGRDDLSPSSSLNGYSANESCDAKKSKKGPAPRVQEELCLVCGDRASGYHYNALTCEGCKGFFRRSVTKSAVYCCKFGRACEMDMYMRRKCQECRLKKCLAVGMRPECVVPENQCAMKRREKKAQKEKDKMTTSPSSQHGGNGSLASGGGQDFVKKEILDLMTCEPPQHATIPLLPDEILAKCQARNIPSLTYNQLAVIYKLIWYQDGYEQPSEEDLRRIMSQPDENESQTDVSFRHITEITILTVQLIVEFAKGLPAFTKIPQEDQITLLKACSSEVMMLRMARRYDHSSDSIFFANNRSYTRDSYKMAGMADNIEDLLHFCRQMFSMKVDNVEYALLTAIVIFSDRPGLEKAQLVEAIQSYYIDTLRIYILNRHCGDSMSLVFYAKLLSILTELRTLGNQNAEMCFSLKLKNRKLPKFLEEIWDVHAIPPSVQSHLQITQEENERLERAERMRASVGGAITAGIDCDSASTSAAAAAAQHQPQPQPQPQPSSLTQNDSQHQTQPQLQPQLPPQLQGQLQPQLQPQLQTQLQPQIQPQPQLLPVSAPVPASVTAPGSLSAVSTSSEYMGGSAAIGPITPATTSSITAAVTASSTTSAVPMGNGVGVGVGVGGNVSMYANAQTAMALMGVALHSHQEQLIGGVAVKSEHSTTAGPTGPGPGGGSGGGSGTGPGGGSGGGSGTGPGGGSGGGSGTGPGGGSGGGSGTGPGGGSGGGSGTMDTKHFLPLDFSTQVNSSLTSPTGRGSMAAPSLHPSLGPGIGSPGQLHSPISTLSSPINGMGPPFSVISSPMGPHSMSVPTTPTLGFSTGSPQLSSPMNPVSSSEDIKPPLGLNGVLKVPAHPSGNMASFTKHICAICGDRSSGKHYGVYSCEGCKGFFKRTVRKDLTYTCRDNKDCLIDKRQRNRCQYCRYQKCLAMGMKREAVQEERQRGKDRNENEVESTSSANEDMPVERILEAELAVEPKTETYVEANMGLNPSSPNDPVTNICQAADKQLFTLVEWAKRIPHFSELPLDDQVILLRAGWNELLIASFSHRSIAVKDGILLATGLHVHRNSAHSAGVGAIFDRVLTELVSKMRDMQMDKTELGCLRAIVLFNPDSKGLSNPAEVEALREKVYASLEAYCKHKYPEQPGRFAKLLLRLPALRSIGLKCLEHLFFFKLIGDTPIDTFLMEMLEAPHQMT
[9]
  relative-fold increase in response element binding (endodimer band) resulting from ligand treatment: 11 fold
[10]; +ligand (1 μM murA) versus −ligand
  Rel. Ind. = relative induction of individual receptor groups: 8.4 fold
[10]; transiently co-transfected 293 cells, 1 μM murA, relative to E4-luc reporter only
  +Lig/E4 = luciferase activity vs. reporter only with ligand: 3.89
[10]; transiently co-transfected 293 cells, without ligand, relative to E4-luc reporter only
  −Lig/E4 = luciferase activity vs. reporter only without ligand: 0.46

B2: VP16-fused monomeric RXR (other)
chain: MDTKHFLPLDFSTQVNSSLTSPTGRGSMAAPSLHPSLGPGIGSPGQLHSPISTLSSPINGMGPPFSVISSPMGPHSMSVPTTPTLGFSTGSPQLSSPMNPVSSSEDIKPPLGLNGVLKVPAHPSGNMASFTKHICAICGDRSSGKHYGVYSCEGCKGFFKRTVRKDLTYTCRDNKDCLIDKRQRNRCQYCRYQKCLAMGMKREAVQEERQRGKDRNENEVESTSSANEDMPVERILEAELAVEPKTETYVEANMGLNPSSPNDPVTNICQAADKQLFTLVEWAKRIPHFSELPLDDQVILLRAGWNELLIASFSHRSIAVKDGILLATGLHVHRNSAHSAGVGAIFDRVLTELVSKMRDMQMDKTELGCLRAIVLFNPDSKGLSNPAEVEALREKVYASLEAYCKHKYPEQPGRFAKLLLRLPALRSIGLKCLEHLFFFKLIGDTPIDTFLMEMLEAPHQMT
[11]
  E-mediated transactivation of the E4-luc luciferase reporter in 293 cells: > 5 fold
